Results on eight molecules are retold here after patent publication US20240294650A1 (Alector, published 2024).

The target of assay [1] is T1, recombinant murine MerTK extracellular domain (mouse, UniProt Q60805 19-497).
T1 construct: also called Mouse MerTK; murine MerTK ECD; not shown: polyHis or TEVS/Thrombin/murine IgG2a-Fc tag
T1 sequence: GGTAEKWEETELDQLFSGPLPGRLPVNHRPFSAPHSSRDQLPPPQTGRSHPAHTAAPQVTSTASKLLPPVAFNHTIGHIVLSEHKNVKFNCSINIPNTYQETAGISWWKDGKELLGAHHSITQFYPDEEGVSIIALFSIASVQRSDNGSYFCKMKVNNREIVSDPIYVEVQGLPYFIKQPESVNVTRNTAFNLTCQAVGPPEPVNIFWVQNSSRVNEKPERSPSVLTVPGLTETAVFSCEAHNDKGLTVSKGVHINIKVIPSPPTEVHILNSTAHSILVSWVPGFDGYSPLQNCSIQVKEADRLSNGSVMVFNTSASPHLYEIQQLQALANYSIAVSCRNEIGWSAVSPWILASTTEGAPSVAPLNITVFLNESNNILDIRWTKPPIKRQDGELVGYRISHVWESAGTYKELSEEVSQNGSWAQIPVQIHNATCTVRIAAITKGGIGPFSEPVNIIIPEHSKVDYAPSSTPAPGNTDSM
Briefly: SPR Carterra LSA, Ab immobilised. The essentials:
(§1)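 Surface plasmon resonance on a Carterra LSA measured affinity of immobilized antibodies for human, cynomolgus or mouse MerTK ectodomain diluted in HBS-TE with 0.5 mg/ml BSA. Analytes flowed over the full array, surfaces were regenerated with Protein A/G Elution Buffer plus 1M NaCl or 10 mM Glycine pH 2.5, and spots binding under 25 RU were discarded before kinetic fitting.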

The target in assay [2] is T2, recombinant cynomolgus MerTK extracellular domain (cynomolgus, UniProt Q12866 21-505 (human entry)).
T2 construct: also called cyno MerTK ECD; not shown: polyHis or TEVS/Thrombin/murine IgG2a-Fc tag
T2 chain: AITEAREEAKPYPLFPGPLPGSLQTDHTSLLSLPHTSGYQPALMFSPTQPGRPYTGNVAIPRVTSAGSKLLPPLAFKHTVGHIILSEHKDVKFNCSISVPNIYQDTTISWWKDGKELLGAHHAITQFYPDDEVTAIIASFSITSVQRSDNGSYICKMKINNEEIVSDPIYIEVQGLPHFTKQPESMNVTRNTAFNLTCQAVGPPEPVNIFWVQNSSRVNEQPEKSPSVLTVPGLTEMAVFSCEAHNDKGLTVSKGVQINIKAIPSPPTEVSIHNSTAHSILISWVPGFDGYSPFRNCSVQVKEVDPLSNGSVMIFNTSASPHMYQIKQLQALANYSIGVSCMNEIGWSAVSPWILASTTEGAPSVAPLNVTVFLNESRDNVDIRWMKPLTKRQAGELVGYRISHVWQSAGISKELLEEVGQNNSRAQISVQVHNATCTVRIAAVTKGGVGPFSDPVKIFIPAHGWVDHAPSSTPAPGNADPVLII
Briefly: SPR Carterra LSA, Ab immobilised. The essentials: as §1

Assay [3] has as its target T3, His tag-conjugated recombinant ProS (human, UniProt P07225 42-676, limits assumed).
T3 construct: bought; also called Protein S; ProS1 (R&D systems, Cat #9489-PS-100)
T3 sequence (looked up): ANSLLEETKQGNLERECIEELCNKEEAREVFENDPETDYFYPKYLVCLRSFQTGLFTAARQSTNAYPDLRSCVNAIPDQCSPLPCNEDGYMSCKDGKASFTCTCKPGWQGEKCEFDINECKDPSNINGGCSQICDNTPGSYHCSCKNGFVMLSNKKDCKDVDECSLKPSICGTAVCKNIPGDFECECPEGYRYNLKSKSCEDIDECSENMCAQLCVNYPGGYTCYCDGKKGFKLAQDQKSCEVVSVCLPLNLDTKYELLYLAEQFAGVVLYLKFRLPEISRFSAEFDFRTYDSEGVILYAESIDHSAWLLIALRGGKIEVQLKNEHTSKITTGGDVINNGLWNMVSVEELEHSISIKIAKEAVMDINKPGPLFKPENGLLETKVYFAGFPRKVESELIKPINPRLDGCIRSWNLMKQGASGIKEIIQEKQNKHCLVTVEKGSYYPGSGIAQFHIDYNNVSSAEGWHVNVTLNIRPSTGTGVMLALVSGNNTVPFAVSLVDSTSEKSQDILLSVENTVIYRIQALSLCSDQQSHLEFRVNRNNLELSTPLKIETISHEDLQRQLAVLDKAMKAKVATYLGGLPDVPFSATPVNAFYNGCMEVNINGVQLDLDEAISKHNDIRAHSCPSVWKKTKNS
Briefly: ELISA, captured Ab, ProS-His 10 ug/ml, no MerTK.

B1: MTK-208 (antibody, human IgG1, V domains shown)
VH: QVQLQQPGAELVVPGASVRLSCKASGYTFINYWMHWVKQRPGQGLEWIGEIDPSDSYANYNQKFKDKSTLSLDKSSSTAYMQLSSLTSEDSAVYYCARCDYYGRLDYWGQGTTLTVSS
VL: QVVLTQSPAIMSASPGEKVTITCSASSSVSYMLWFQQKPGTSPKLWIYSTSNLASGVPARFSGSGSGTSYSLTISRLEAEDAATYYCQQRSSYPPITFGAGTKLELK
Take B1: the binding result in assay [1] is given as “no binding (tested: analyte up to 600 nM)”. In addition, the dissociation constant (Kd) in assay [2] was found to be 34 nM.

B2: MTK-221 (antibody, human IgG1, V domains shown)
VH: QVTLKESGPGMLQSSQTLSLTCSFSGFSLSTSGMGVSWIRQPSGKGLEWLAHIYWDDDKRYNTSLQSRLTISKDTSRNQVFLKITSVDTADTATYFCGRLGAYSAFPYYFDYWGQGTTLTVSS
VL: DIQMTQSPSSLSASLGGKVTITCKASQDIHKHIAWYQHKPGKGPRLLIHYTSTLQPGIPSRFSGSGSGRDYSFSISNLEPEDLATYYCLQYDNLWTFGGGTKLEIK
For the molecule B2, in assay [1], the binding result was “no binding (tested: analyte up to 600 nM)”. Also, the Kd in assay [2] turned out to be 38 nM.

B3: MTK-211 (antibody, human IgG1, V domains shown)
VH: QVQLQQSGAELMKPGASVKLSCKATGYTFTGYWIEWVKQRPGHGLEWIGEILPGSGGSNYNEKFKGKATFTADTSSNTAYIQLSSLTTEDSAIYCCARGEPSYFSDAGFAYWGQGTLVTVSA
VL: QIVLTQSPAVMSASPGEKVTMTCSASSSITYMHWYQQKPGTSPKRWIYDTSKLASGVPARFSGSGSGTSYFLTISSMEAEDVATYYCHQRSTYPYTFGGGTKLEIM
In the case of B3, the Kd in assay [2] was determined as 1.4 nM. Besides, the binding result in assay [3] is “binds”.

B4: MTK-214 (antibody, human IgG1, V domains shown)
VH: QVQLQQPGAELVKPGASVKVSCKASGYTFTNYWMHWMKQRPGQGLEWIGRIHPFDSDTNYNEKFTDKATLTVDKSSSTAYMQLSSLTSEDSAVYYCAIGTLIYWGQGTTLTASS
VL: DILLTQSPATLSVTPGETVSLSCRASQSIYKKLHWFQQRSHRSPRLLIKFASDSISGIPSRFTGSGSGTDYTLSINSVKPEDEAIYYCLQGYSTPLTFGAGTKLELK
With B4, the Kd in assay [1] is 320 nM. In addition, in assay [3], the binding result is on record as “binds”.

B5: MTK-224 (antibody, human IgG1, V domains shown)
VH: QVQLQQPGAELVKPGASVKVSCKASGYTFTSYWMHWVKQRPGQGLEWIGRIHPFDSDTNYNQKFKGKATLTVDKSSSTAYMQLSSLTSEDSAVYYCSIAGFAYWGQGTLVTVSA
VL: DIVMTQSPATLSVTPGDRVSLSCRASQIISDYLNWYQQKSHESPRLLIKYASQSISGIPSRFSGSGSGSDFTLSINSVEPEDVGVYYCQNGHSFPLTFGAGTKLELK
B5: the Kd in assay [1] was determined as 430 nM. Also, the binding result in assay [3] is “binds”.

B6: MTK-207 (antibody, human IgG1, V domains shown)
VH: QVQLKESGPGLVAPSQSLSITCTVSGISLTSYGVSWVRQPPGKGLEWLGIIWGDGSTNYHSALISRLSISKDNSKSQVFLKLNSLQTDDTATYYCAKGRYGNYEDWYFDVWGTGTTVTVSS
VL: DIQMTQSPASLSASVGETVTITCRASGNIHNYLAWYQQKQGKSPQLLVYNAKTLAAGVPSRFSGSGSGTQYSLKINSLQPEDFGSYYCQHFWSIPLTFGAGTKLELK
In the case of B6, the binding result in assay [3] is “binds”.

B7: MTK-213 (antibody, human IgG1, V domains shown)
VH: QVQLQQPGAELVKPGASVKMSCKASGYTFTSYWITWVKQRPGQGHEWIGEIYPGIGSTNYNEKFKSKATLTVDTSSRTAYMQLSSLTSEDSAVYFCARGAYTKYYFDYWGQGTTLTVSS
VL: DIVMTQSHKFMSTSVGDRVSITCKASQDVGDAVAWYQQKPGQTPKLLIYWASTRHTGVPDRFTGSGSGTDFTLTISNVQSEDLADYFCQQYSSYLMYTFGGGTKLEIK
On to B7, for which the Kd in assay [1] is 4.8 nM; in assay [2], 60 nM. In assay [3], the binding result is given as “binds”.

B8: MTK-231 (antibody, human IgG1, V domains shown)
VH: DVQLQESGPGLVKPSQSLSLTCSVTGYSITSGYYWNWIRQFPGNKLEWMGYISYDGTYNYHPSLKNRISITRDTSKNQFFLTLNSVTTEDTATFYCTRGGGYWGQGTSVTVSS
VL: DVVMTQTPLSLPVSLGDQASISCRSSQSLVHSDGNTYLHWYLQKPGQSPKLLIYKVSNRFSGVPDRFSGSGSGTDFTLKISRLEAEDLGIYFCSQTTHIPLTFGSGTKLEIK
With B8, in assay [2], the Kd is 48 nM. In assay [3], the binding result was “binds”.
